Data from patent US20170333524A1.

Tests used:
[1] = target: MART-1 (ELA peptide) peptide on HLA-A*02:01 (human); assay: SPR, Biacore 3000; TCR on the chip, refolded pMHC injected. The row prints the target as 'AAG (SEQ ID NO 5', but its ratio 395.8 is taken against the WT ELA value 9.5, and Table 3 gives 0.024 under ELA); soluble, other
[2] = target: MART-1 (ELA peptide) peptide on HLA-A*02:01 (human); assay: SPR, Biacore 3000; TCR amine-coupled to a CM5 chip, refolded ELA/HLA-A2 injected, 25 °C (Table 3, ELA); soluble, other
[3] = target: MART-1 (ELA peptide) peptide on HLA-A*02:01 (human); assay: SPR, Biacore 3000; TCR amine-coupled to a CM5 chip, refolded pMHC injected, 25 °C, 1:1 Langmuir fit; soluble, other

| Kd [1] | Kd [2] | Kd [3] | Substance |
| --- | --- | --- | --- |
| 0.024 µM | 0.024 µM |  | DMF5 TCR αD26Y/βL98W |
|  |  | 2.9 µM | DMF5 TCR βL98W |
